The source of these data is PMC9513230, “Inhibition of Plasmodium falciparum Hsp70-Hop partnership by 2-phenylthynesulfonamide” (Frontiers in Molecular Biosciences, 2022).

One experiment has as its target T1, PfHop (Plasmodium falciparum, UniProt Q8ILC1).
T1 construct: His; made in house; host or cells: E. coli XL1 Blue
T1 sequence (Q8ILC1 1-564): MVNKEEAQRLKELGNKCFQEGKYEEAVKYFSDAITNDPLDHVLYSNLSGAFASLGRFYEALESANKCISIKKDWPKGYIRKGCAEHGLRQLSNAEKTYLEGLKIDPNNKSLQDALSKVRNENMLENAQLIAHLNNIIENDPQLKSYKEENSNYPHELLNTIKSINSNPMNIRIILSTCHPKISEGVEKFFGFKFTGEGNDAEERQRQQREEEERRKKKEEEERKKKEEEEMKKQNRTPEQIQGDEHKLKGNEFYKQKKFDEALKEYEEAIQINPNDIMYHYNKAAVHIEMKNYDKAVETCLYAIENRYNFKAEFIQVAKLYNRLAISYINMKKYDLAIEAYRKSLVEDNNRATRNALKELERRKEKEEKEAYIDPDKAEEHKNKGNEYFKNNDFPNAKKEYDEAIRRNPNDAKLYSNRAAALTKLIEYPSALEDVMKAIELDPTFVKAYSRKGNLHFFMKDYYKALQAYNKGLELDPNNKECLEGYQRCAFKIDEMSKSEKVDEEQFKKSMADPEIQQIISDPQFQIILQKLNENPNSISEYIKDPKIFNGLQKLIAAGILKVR
Briefly: SPR equilibrium binding to immobilized PfHop. Here is the method:
The steady-state equilibrium binding kinetics for the inhibitors on either PfHsp70-1 or PfHop were investigated using BioNavis Navi 420A ILVES multi-parametric surface plasmon resonance (MP-SPR) system (BioNavis, Finland) following a previously described method ([Lebepe et al., 2020]; [Chakafana et al., 2021]). Briefly, filter-sterilized de-gassed PBS (4.3 mM Na2HPO4, 1.4 mM KH2PO4, 137 mM NaCl, 3 mM KCl, 0.005% (v/v) Tween 20, and 20 mM EDTA; pH 7.4) was used as running buffer for the assay. The ligand (0.1 μg/ml of PfHsp70-1/PfHop) was immobilized onto a carboxymethyl dextran (CMD 3-D) gold sensor chip through amine coupling. PES was injected (flow rate of 50 μl/min) as analyte at varying final concentrations (0, 1.25, 2.5, 5, 10, 20 nM). […] Steady-state equilibrium was achieved after allowing the interaction to occur for 8 min at 25°C, followed by dissociation for 4 min at 25°C, respectively. The data generated were analyzed using Data Viewer (BioNavis, Finland) after subtraction of baseline (signals generated on the chip surface without protein immobilized and buffer without inhibitor). The resultant sensorgrams were analyzed to determine the equilibrium binding affinities using Trace Drawer software version 1.8 (Ridgeview Instruments; Sweden).

Experiment [1] has as its target PfHsp70-1-PfHop association (Plasmodium falciparum, UniProt Q8IB24+Q8ILC1). Briefly: ELISA for the direct association of PfHsp70-1 and PfHop. The format is biochemical. Conditions: for Effect on association of PfHsp70-1 and PfHop: 25 µM nucleotide or inhibitor. Here is the method: An enzyme-linked immunosorbent assay (ELISA) was used to validate the effect of PES on the direct association of PfHsp70-1 and PfHop following a previously described protocol ([Mabate et al., 2018]). Briefly, ligand (5 μg/ml of PfHsp70-1) suspended in 5 mM sodium bicarbonate (NaHCO3) at pH 9.5 was noncovalently immobilized onto a 96 well plate overnight at 4 C. BSA (5 μg/ml) was used as a ligand for the negative control. The wells were washed with 150 µl TBST which contains (Tris-buffered saline- Tween (TBST; 20 mM Tris HCl, pH 7.5, 500 mM NaCl supplemented with 0.1% Tween 20) prior to blocking with 5% fat-free milk in TBST and incubated at 25 C for 1 h. The wells were washed using TBST for a total of 10 min. Varying concentrations (0–1,000 nM) of analyte PfHop were added to the wells and incubated for 2 h at 25 °C. To remove the unbound analyte, the plate was washed with 150 µl TBST three times before the addition of rabbit-raised α-PfHop antibody (1: 4,000) followed by incubation at 25°C for 1 h. Subsequently, the wells were washed with 150 µl TBST three times before the addition of 100 µl secondary HRP conjugated goat-raised α-rabbit antibody (1: 4,000) and incubated for 45 min at 25 °C. The substrate, 3,3’5,5’ –tetramethylbenzidine (TMB) (Bio Scientific, United States) was added into the wells and incubated for 2 min at 25 C. Color development was monitored by recording absorbance readings at 370 nm at 5 min time intervals for 30 min using a SpectraMax M3 Microplate reader (Molecular Devices, United States). To determine the effect of the inhibitor, the assay was conducted in the presence of 25 µM) of PES. […] Furthermore, the assay was repeated interchanging the ligand and analyte to validate data reproducibility. The generated data were analyzed taking into account the background signal generated by BSA which served as the control protein. The absorbance values obtained at the highest concentration of each analyte were averaged to represent maximum (100%) binding. Titration curves were then generated using GraphPad Prism 9.3.1 (GraphPad Software, United States). The relative binding affinities of PES under each experimental setting were normalized relative to the affinity estimated for assay conducted in the absence of nucleotide at the highest concentration of PfHop. Statistical analysis was conducted to establish significant differences at p < 0.05 using a student t-test.

Experiment [2] deals with Asexual P. falciparum strain 3D7 parasites. Briefly: Parasite growth inhibition assay (SYBR Gold). The format is cell-based. Conditions: Plasmodium falciparum, 3D7, 96 h, read-out: IC50 parasite growth. As for the experimental part: Parasite growth without any drug present, which allowed the parasites to proliferate unrestricted, was used as negative drug control. SYBRTM Gold DNA stain (Invitrogen, ThermoFisher Scientific Inc., Germany) was used to measure the proliferation of the parasites compared to the controls as previously described ([[…] al., 2004]). Fluorescence was measured using a TECAN Spark® multimode microplate reader (Tecan Trading AG, Switzerland) and the data were analyzed using SigmaPlot, version 12 (Systat Software Inc., IL, United States).

The test system is the same in experiment [3]. Conditions: read-out: IC50 published potency, ref Smilkstein et al., 2004; cited from earlier work.
Experiment [4] addresses T2, Plasmodium falciparum Hsp70-1 (Plasmodium falciparum, UniProt Q8IB24 1-677).
T2 construct: Plasmodium falciparum Hsp70-1 (PF3D7_0818900), cytosolic Hsp70; also called PfHsp70-1; PF3D7_0818900
Briefly: SPR; ligand and analyte switched: PfHop immobilised, PfHsp70-1 analyte; with ADP; bivalent fit model. Particulars: both partners purified.

The target of experiment [5] is T2, Plasmodium falciparum Hsp70-1. Kind of experiment: SPR; ligand and analyte switched: PfHop immobilised, PfHsp70-1 analyte; with ATP; bivalent fit model. Conditions: both partners purified.
For experiment [6] the target is unchanged. Briefly: SPR; ligand and analyte switched: PfHop immobilised, PfHsp70-1 analyte; with PES; bivalent fit model. Conditions: both partners purified.
Experiment [7] shares this target. Briefly: SPR; ligand and analyte switched: PfHop immobilised, PfHsp70-1 analyte; with EGCG; bivalent fit model. Particulars: both partners purified.
Experiment [8] shares this target. Briefly: SPR; PfHsp70-1 immobilised as ligand; PfHop analyte 0-2000 nM, 25 C, PBS; with 25 uM ADP; bivalent fit model. Conditions: both partners purified.
For experiment [9] the target is unchanged. Kind of experiment: SPR; PfHsp70-1 immobilised as ligand; PfHop analyte 0-2000 nM, 25 C, PBS; with 25 uM ATP; bivalent fit model. Particulars: both partners purified.
For experiment [10] the target is unchanged. Briefly: SPR; PfHsp70-1 immobilised as ligand; PfHop analyte 0-2000 nM, 25 C, PBS; with 25 uM PES; bivalent fit model. Conditions: both partners purified.
Experiment [11] shares this target. Briefly: SPR; PfHsp70-1 immobilised as ligand; PfHop analyte 0-2000 nM, 25 C, PBS; with 25 uM EGCG; bivalent fit model. Conditions: both partners purified.
Experiment [12] has the same target. Kind of experiment: SPR; ligand and analyte switched: PfHop immobilised, PfHsp70-1 analyte; no nucleotide or inhibitor (NN); bivalent fit model. Conditions: both partners purified.
Experiment [13] has the same target. Kind of experiment: SPR; PfHsp70-1 immobilised as ligand; PfHop analyte 0-2000 nM, 20 ul/min, 25 C, PBS; no nucleotide or inhibitor (NN); bivalent fit model. Conditions: both partners purified.

Where two headings read alike, the source gives them in different places.

As to `Nc1ncnc2c1ncn2[C@@H]1O[C@H](COP(=O)(O)OP(=O)(O)OP(=O)(O)O)[C@@H](O)[C@H]1O` [ATP], the Kd on PfHop turned out to be 861 ± 10 nM. Besides, the “Effect on association of PfHsp70-1 and PfHop” value in experiment [1] is recorded as “abrogated the association”.
With `CCN(CC)CCCC(C)Nc1ccnc2cc(Cl)ccc12` (stereo not shown) [chloroquine], the IC50 in experiment [2] was 29.1 ± 1.3 nM; in experiment [3], 21 ± 1.7 nM.
Take `Nc1ncnc2c1ncn2[C@@H]1O[C@H](COP(=O)(O)OP(=O)(O)O)[C@@H](O)[C@H]1O` [ADP]: the “Effect on association of PfHsp70-1 and PfHop” value in [1] is “promoted the association”.
`O=C(O[C@@H]1Cc2c(O)cc(O)cc2O[C@@H]1c1cc(O)c(O)c(O)c1)c1cc(O)c(O)c(O)c1` [EGCG, (−)-Epigallocatechin-3-gallate]: the IC50 in experiment [1] (ligand PfHop, analyte PfHsp70-1) came out at 14.6 ± 1.8 nM; in experiment [1] (ligand PfHsp70-1, analyte PfHop), 13.9 ± 1.2 nM.

B1: Plasmodium falciparum Hsp90-Hsp70 organizing protein (natural protein, UniProt Q8ILC1 1-564, looked up)
chain: T1 sequence (Q8ILC1 1-564)
notes: Plasmodium falciparum Hsp90-Hsp70 organizing protein, PfHop (PF3D7_1434300); also called PfHop; PF3D7_1434300
In the case of B1, the Kd in experiment [4] stood at 3.1 nM; in experiment [5] it was 80.9 nM; in experiment [6] it was 232 nM; in experiment [7], 1360 nM; in experiment [8] it was 3.08 nM; in experiment [9], 79.8 nM. For the same molecule, the Kd in experiment [10] stood at 214 nM; in experiment [11] it was 20700 nM; in experiment [12] it was 4.49 nM; in experiment [13] it was 4.24 nM. Moreover, the koff in experiment [4] stood at 0.025 s⁻¹; in experiment [5], 0.0215 s⁻¹; in experiment [6], 0.00811 s⁻¹; in experiment [7] it was 0.00914 s⁻¹; in [8], 0.00308 s⁻¹; in experiment [9], 0.0207 s⁻¹. Also, the koff was 0.0266 s⁻¹ in experiment [10], 0.13 s⁻¹ in [11], 0.0341 s⁻¹ in experiment [12] and 0.00325 s⁻¹ in experiment [13]. Besides, the kon in experiment [4] worked out at 8.07e+06 M⁻¹ s⁻¹; in [5] it was 266000 M⁻¹ s⁻¹; in experiment [6], 35000 M⁻¹ s⁻¹; in experiment [7], 6710 M⁻¹ s⁻¹; in [8] it was 781000 M⁻¹ s⁻¹; in [9], 259000 M⁻¹ s⁻¹. Also, the kon in [10] stood at 125000 M⁻¹ s⁻¹; in [11], 6310 M⁻¹ s⁻¹; in experiment [12], 7.6e+06 M⁻¹ s⁻¹; in experiment [13], 767000 M⁻¹ s⁻¹.
